This passage reports Kd, binding result and EC50 results from patent US20200231671A1 (E R SQUIBB AND SONS L L C, published 2020).

Experiment [1] has as its target T1, recombinant human LAG-3 fusion protein (human, UniProt P18627 23-450).
T1 construct: also called recombinant LAG-3 protein
T1 sequence (looked up): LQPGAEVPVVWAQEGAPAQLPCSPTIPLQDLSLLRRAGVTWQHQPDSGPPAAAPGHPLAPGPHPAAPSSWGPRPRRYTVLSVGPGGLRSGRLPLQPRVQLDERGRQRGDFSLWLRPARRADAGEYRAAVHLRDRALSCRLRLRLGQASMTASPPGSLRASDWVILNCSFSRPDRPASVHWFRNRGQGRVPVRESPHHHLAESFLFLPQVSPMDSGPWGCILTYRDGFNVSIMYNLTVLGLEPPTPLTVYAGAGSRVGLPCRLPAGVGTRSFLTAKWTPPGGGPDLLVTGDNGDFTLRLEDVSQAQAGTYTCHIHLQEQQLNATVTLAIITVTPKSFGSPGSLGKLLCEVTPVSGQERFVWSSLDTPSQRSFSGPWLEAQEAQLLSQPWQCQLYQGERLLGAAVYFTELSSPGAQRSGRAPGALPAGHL
The experiment can be described thus: BIAcore, antibody captured on anti-CH1, 20 nM LAG-3 fusion protein injected. As for the experimental part: The binding of the 25E3, 25F7, 8B7, 26H10 and 17E5 antibodies to recombinant LAG-3 protein was examined by BIAcore™ using a capture method. The 25E3, 25F7, 8B7, 26H10 and 17E5 antibodies each were captured using anti-CH1, a reagent antibody that is specific towards the heavy chain constant region 1 of human antibody (Zymed, Clone HP6045, Stock conc. 1.0 mg/mL). Anti-CH1 was coated on a CMS chip (BR-1000-14, Research Grade) at high density (9700-11500RUs). The coating was carried out based on the standard immobilization procedure recommended by the manufacturer. The 25E3, 25F7, 8B7, 26H10 or 17E5 purified antibody, with concentrations ranging from 0.5-3 μg/mL, was then captured on the anti-CH1 coated surface at the flow-rate of 10 uL/min for 1 minute. A single concentration of recombinant human LAG-3 fusion protein (20 nM) was injected over captured antibody for 3 minutes at a flow rate of […]. The antigen was allowed to dissociate for 7.5 minutes. The chip surface was regenerated after each cycle with 25 μL, of 25 mM NaOH followed by 30 μL of HBS-EP wash. Isotype controls were run on the chip, and the data used to subtract non-specific binding. All the experiments were carried out on a Biacore 3000 surface plasmon resonance instrument, using BIAcore Control software v 3.2. Data analysis was carried out using BiaEvaluation v3.2 software. The BIAcore results for 25E3, 25F7, 8B7, 26H10 and 17E5 confirm the flow cytometry results that all five antibodies are capable of binding with high affinity to human LAG-3.
(In SPR one partner is held on a chip, and binding of the other changes the refractive index at the surface.)

The target in experiment [2] is T2, rhesus monkey LAG-3 full length extra loop peptide (rhesus monkey).
T2 construct: Used in a 'similar peptide ELISA'; Biotinylation is not restated for this peptide; also called Rhesus Extra Loop
T2 peptide: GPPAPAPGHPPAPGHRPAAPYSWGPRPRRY
The experiment can be described thus: ELISA on rhesus full length extra loop peptide. As for the experimental part: To further examine binding of these antibodies to the extra loop peptide region, additional ELISA assays were performed. In an ELISA assay using the human full-length extra loop peptide (SEQ ID NO: 79), EC₅₀ values for binding were determined for 25E3, 25F7 and 8B7. Additionally, a similar peptide ELISA was conducted using the full length extra loop peptide sequence from rhesus monkey LAG-3, having the sequence […] (SEQ ID NO: 90), and EC₅₀ values for binding were determined for 25F7 and 8B7. […] Moreover, antibodies 25F7 and 8B7 also bind to the rhesus LAG-3 extra loop peptide region, albeit less well compared to the human sequence, which may be due to the species sequence divergence in this polypeptide. The results also confirm that the 26H10 antibody is not capable of recognizing the LAG-3 extra loop peptide.
In general terms: An ELISA detects its analyte on a solid surface through an enzyme-linked reagent.

In experiment [3] the target is T3, rhesus monkey LAG-3, clone pa23-5 (cell surface, CHO) (rhesus monkey, UniProt P18627 24-525 (human entry)).
T3 construct: also called CHO-rhesus LAG3
T3 chain: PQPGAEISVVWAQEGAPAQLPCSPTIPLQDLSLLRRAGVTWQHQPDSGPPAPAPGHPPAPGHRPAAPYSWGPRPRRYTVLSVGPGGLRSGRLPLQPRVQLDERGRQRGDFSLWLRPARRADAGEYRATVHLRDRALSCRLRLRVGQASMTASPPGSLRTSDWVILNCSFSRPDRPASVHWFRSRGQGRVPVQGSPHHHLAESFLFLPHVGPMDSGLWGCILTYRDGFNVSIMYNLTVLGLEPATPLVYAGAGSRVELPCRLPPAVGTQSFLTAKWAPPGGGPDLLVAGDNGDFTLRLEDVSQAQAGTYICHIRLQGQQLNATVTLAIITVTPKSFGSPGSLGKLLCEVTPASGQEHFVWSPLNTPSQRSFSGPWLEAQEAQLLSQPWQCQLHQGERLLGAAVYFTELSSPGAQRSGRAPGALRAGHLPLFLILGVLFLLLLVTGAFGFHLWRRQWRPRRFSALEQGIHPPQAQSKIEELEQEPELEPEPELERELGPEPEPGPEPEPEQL
As to the kind of experiment: flow cytometry, CHO cells expressing rhesus LAG-3. The source says:
The cDNA of clone pa23-5 was inserted into an expression construct, which was transfected into CHO-S suspension cells by nucleofection (Amaxa). Rhesus LAG-3 expression by sorted, selection drug-resistant clones was verified by FACS analysis. This clonal CHO cell line over-expressing rhesus LAG-3 was used in similar FACS assays to those described above to measure antibody cross reactivity to the monkey protein. Briefly, the 25F7, 8B7 and 26H10 monoclonal antibodies were serially diluted with cold 1×PFAE buffer (1×PBS+2% FBS, 0.02% sodium azide, 2 mM Na EDTA). For the binding reaction, 50 μl of diluted antibody solution was added to a 50 μl cell suspension containing 2×10⁵ cells and the mixture was incubated on ice for 30 minutes. The cells were processed by the same protocol described above. The analysis of antibody binding was conducted as described above.
On the technique in general: Flow cytometry measures light scatter and fluorescence of single cells or particles in a stream.

In experiment [4] the target is T4, cynomolgus monkey LAG-3 on activated cynomolgus monkey T cells (cynomolgus monkey).
T4 construct: whole, on cells
As to the kind of experiment: flow cytometry, activated cynomolgus CD4+ T cells. As for the experimental part: To test the ability of the antibodies to bind to native human LAG-3 on the surface of activated human T cells, resting CD4⁺ T cells were isolated from purified peripheral blood mononuclear cells and subjected to three days of stimulation with a combination of anti-CD3 and anti-CD28 antibodies affixed to polystyrene beads. The 25F7, 8B7 and 26H10 monoclonal antibodies were serially diluted with cold 1×PFAE buffer (1×PBS+2% FBS, 0.02% sodium azide, 2 mM Na EDTA). For the binding reaction, 50 μl of diluted antibody solution was mixed with 50 μl of PE-labeled anti-human CD4 (BD Bioscience, Cat # 555347). Activated T cells were processed by the same protocol described above. The analysis of antibody binding was conducted as described above.
In a separate experiment, the antibodies were tested for binding to cynomolgus monkey LAG-3 using activated cynomolgus monkey T cells. In vitro activation of these monkey T cells was achieved through anti-CD³/anti-CD28 treatment of the T cells by essentially the same protocol described above for the in vitro activation of human T cells, followed by flow cytometry analysis performed as described above for staining of in vitro activated human CD4⁺ T cells.

By Kd is commonly meant the concentration at which binding is half-saturated. In general, EC50 refers to the concentration at which the effect is half-maximal.

B1: 25E3 human monoclonal antibody (antibody, IgG1, V domains shown)
VH: EVQLVESGGGVVRPGGSLRLSCAASGFTFDDYGMSWVRQAPGKGLEWVSGINWNGGSTYYADSVKGRFTISGDNAKNSLYLQMNSLRAEDTALYYCTTGGYWGQGTLVTVSS
VL: AIQLTQSPSSLSASVGDRVTITCRASQGIRSALAWYQQKPGKAPKLLIYDASSLESGVPSRFSGSGSGTDFTLTISSLQPEDFATYYCQQFNSYPYTFGQGTKLEIK
B1: the Kd in experiment [1] worked out at 0.09 nM.

B2: 26H10 human monoclonal antibody (antibody, IgG1, V domains shown)
VH: QVQLVESGGGVVQPGRSLRLSCAASGFTFSSYGMHWVRQAPGKGLEWVAVIWYDGSNKYYADSVKGRFTISRDNSKNTLYLQMNSLRAEDTAVYYCAREWAVASWDYGMDVWGQGTTVTVSS
VL: not shown
notes: also called 26H10-FITC
On to B2, for which the binding result in experiment [2] was “no binding”. In addition, the Kd in experiment [1] was 0.1 nM. The values for the EC50 in experiment [3] and in experiment [4] were 4.68 nM and 5.19 nM, respectively.

B3: 25F7 human monoclonal antibody (antibody, IgG1, V domains shown)
VH: QVQLQQWGAGLLKPSETLSLTCAVYGGSFSDYYWNWIRQPPGKGLEWIGEINHNGNTNSNPSLKSRVTLSLDTSKNQFSLKLRSVTAADTAVYYCAFGYSDYEYNWFDPWGQGTLVTVSS
VL: EIVLTQSPATLSLSPGERATLSCRASQSISSYLAWYQQKPGQAPRLLIYDASNRATGIPARFSGSGSGTDFTLTISSLEPEDFAVYYCQQRSNWPLTFGQGTNLEIK
notes: also called 25F7-FITC (IgG1 version)
Consider B3, for which the EC50 in experiment [2] stood at 13.1 nM; in experiment [3], 22.7 nM; in experiment [4], 14.2 nM. The Kd in experiment [1] stood at 0.47 nM.

B4: 8B7 human monoclonal antibody (antibody, IgG4, V domains shown)
VH: QVQLQQWGAGLLKPSETLSLTCAVYGGSFSGYYWSWIRQPPGKGLEWIGEINHRGNTNCNPSLKSRVTISGDTSKKQFALKLNSVTAADTAVYYCARGYDILTGYYEDSWGPGTLVTVSS
VL: EIVLTQSPATLSLSPGERATLSCRASQSVSSYLAWYQQKPGQAPRLLIYNASNRATGIPARFSGSGSGTDFTLTISSLEPEDFAVYYCQQRSNWPLTFGGGTKVEIK
notes: also called 8B7-FITC
Regarding B4, the EC50 in experiment [2] stood at 0.6 nM; in experiment [3], 10 nM; in experiment [4] it was 30.4 nM. The Kd in experiment [1] is 0.09 nM.
